Source: patent publication US20200087354A1

Target: Streptococcus pyogenes (Spy) dCas9 (Streptococcus pyogenes) (UniProt Q99ZW2)
Assay: cell-based or functional assay

Substance | RFP fluorescence relative to a strain with no guide RNA (dCas9-based repression of a chromosomal RFP reporter in E. coli)
AcrIIA2 (LMOG_03147) | 25%
AcrIIA4 | 85%
